Data: patent publication US20070180545A1
Several values for one entry are separate records, joined by “and”; a condition that tells them apart may be missing. Identical values can stand only once.

How the values were obtained:
[1] = biological target: TAT-031 as present on the surface of human tumor cell lines (PC3, H1299, HL-60) (human) (UniProt P08195); experiment: flow cytometry on PC-3 human tumor cells
[2] = biological target: TAT-031 as present on the surface of human tumor cell lines (PC3, H1299, HL-60) (human) (UniProt P08195); experiment: flow cytometry on H1299 human tumor cells
[3] = biological target: TAT-031 as present on the surface of human tumor cell lines (PC3, H1299, HL-60) (human) (UniProt P08195); experiment: flow cytometry on HL-60 human tumor cells
[4] = biological target: TAT-031 (full-length clone expressed from phCMV1-TAT-031 on stably transfected cells) (human) (UniProt P08195); experiment: flow cytometry on BaF3 cells stably transfected with TAT-031 (SLC3A2)

Which results are given for “Mouse monoclonal antibody 44D7 (Abcam, Cat#AB23495)”?
relative geometric mean fluorescence (relative geometric mean fluorescence) [1]: 153 and 98.6 and 86; relative geometric mean fluorescence (relative geometric mean fluorescence) [2]: 527 and 419 and 389; relative geometric mean fluorescence (relative geometric mean fluorescence) [3]: 118 and 257 and 205; relative geometric mean fluorescence (relative geometric mean fluorescence) [4]: 165 and 102
